Series [1] deals with MLL1 third plant homeodomain (PHD3) (UniProt Q03164). As to the kind of experiment: ITC; conditions not given (table S1, fig. S2).
Series [2] has as its target Cyp33 RRM∆α/MLL1 PHD3 complex (UniProt Q9UNP9). Put plainly: ITC; conditions not given (table S1, fig. S2).
A further series concerns H3(1-13)K4me3 peptide. Put plainly: ITC. Particulars: NMR titrations: 20 mM KHPO4 pH 7, 40 mM KCl, 1 mM DTT, 289.15 K as printed (table S2 says 298.15 K for Kd); structures of complexes: 40 mM KCl, 20 mM KH2PO4 pH ….
The target of series [3] is Histone H3 H3K4me3 (Homo sapiens) (UniProt P68431). Particulars: cited from earlier work.

Sequence of MLL1 third plant homeodomain (PHD3) (Q03164 1564-1627): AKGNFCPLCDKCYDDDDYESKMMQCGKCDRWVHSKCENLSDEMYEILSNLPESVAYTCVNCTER
Sequence of MLL1 PHD3-BRD (Q03164 1566-1784): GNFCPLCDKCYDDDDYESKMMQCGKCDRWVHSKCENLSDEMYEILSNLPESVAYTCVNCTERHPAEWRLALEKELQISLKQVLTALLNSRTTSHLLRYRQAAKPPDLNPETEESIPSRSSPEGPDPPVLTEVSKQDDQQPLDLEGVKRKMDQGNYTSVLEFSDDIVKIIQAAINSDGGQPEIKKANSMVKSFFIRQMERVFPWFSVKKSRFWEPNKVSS

Cyp33 KRK83-88A triple mutant had a Kd in series [1] of 7 µM.
On the same count and under the same terms, the result for “Cyp33 W101A, L102A, F105A triple mutant (Cyp33-WLF)” reads 7 µM.
With “Histone H3 lysine N6-trimethylated peptide (H3K4me3) (from UniProt P68431 2-14)”, the Kd in series [2] was found to be 24 µM.
Substance “Cyp33 RNA recognition motif (RRM) with the C-terminal extension (α3 helix) (from UniProt Q9UNP9 1-114) (domain or fragment)” registered a dissociation constant (Kd) in series [1] of 4.6 µM.
In the series with H3(1-13)K4me3 peptide, “UAAUGUUAAUGUUAAUGUUAAUGU [4x UAAUGU repeat RNA]” registered a Kd of 30 µM.
Turning to Cyp33 K83A mutant, in series [1], the dissociation constant (Kd) was determined as 7 µM.
Substance Cyp33 RK86-88A double mutant showed a dissociation constant Kd in series [1] of 7 µM.
With MLL1 PHD3-BRD (from UniProt Q03164), in series [3], the Kd is 4 µM.
